The numbers were not newly measured in PMC5266585, which cites them from elsewhere.

The target in data set [1] is LRP1 principal ligand binding region fragments (Homo sapiens) (UniProt Q07954).
For data set [2], the target named is LRP1 CR4-CR5-CR6 (Homo sapiens) (UniProt Q07954).

For orientation: Kd means the constant that tells how readily two partners part at equilibrium. As for PAI-1 (from UniProt P05121), the dissociation constant Kd in data set [1] is < 3 nM; in data set [2], 1.5 nM.
